This passage reports Kd results from article PMC9943652.

Holding throughout (assay): EMSA
(In general: A gel shift assay detects complexes by their altered migration in electrophoresis.)

The target of one data set is T1, XPG (human, UniProt P28715 2-1186).
T1 sequence: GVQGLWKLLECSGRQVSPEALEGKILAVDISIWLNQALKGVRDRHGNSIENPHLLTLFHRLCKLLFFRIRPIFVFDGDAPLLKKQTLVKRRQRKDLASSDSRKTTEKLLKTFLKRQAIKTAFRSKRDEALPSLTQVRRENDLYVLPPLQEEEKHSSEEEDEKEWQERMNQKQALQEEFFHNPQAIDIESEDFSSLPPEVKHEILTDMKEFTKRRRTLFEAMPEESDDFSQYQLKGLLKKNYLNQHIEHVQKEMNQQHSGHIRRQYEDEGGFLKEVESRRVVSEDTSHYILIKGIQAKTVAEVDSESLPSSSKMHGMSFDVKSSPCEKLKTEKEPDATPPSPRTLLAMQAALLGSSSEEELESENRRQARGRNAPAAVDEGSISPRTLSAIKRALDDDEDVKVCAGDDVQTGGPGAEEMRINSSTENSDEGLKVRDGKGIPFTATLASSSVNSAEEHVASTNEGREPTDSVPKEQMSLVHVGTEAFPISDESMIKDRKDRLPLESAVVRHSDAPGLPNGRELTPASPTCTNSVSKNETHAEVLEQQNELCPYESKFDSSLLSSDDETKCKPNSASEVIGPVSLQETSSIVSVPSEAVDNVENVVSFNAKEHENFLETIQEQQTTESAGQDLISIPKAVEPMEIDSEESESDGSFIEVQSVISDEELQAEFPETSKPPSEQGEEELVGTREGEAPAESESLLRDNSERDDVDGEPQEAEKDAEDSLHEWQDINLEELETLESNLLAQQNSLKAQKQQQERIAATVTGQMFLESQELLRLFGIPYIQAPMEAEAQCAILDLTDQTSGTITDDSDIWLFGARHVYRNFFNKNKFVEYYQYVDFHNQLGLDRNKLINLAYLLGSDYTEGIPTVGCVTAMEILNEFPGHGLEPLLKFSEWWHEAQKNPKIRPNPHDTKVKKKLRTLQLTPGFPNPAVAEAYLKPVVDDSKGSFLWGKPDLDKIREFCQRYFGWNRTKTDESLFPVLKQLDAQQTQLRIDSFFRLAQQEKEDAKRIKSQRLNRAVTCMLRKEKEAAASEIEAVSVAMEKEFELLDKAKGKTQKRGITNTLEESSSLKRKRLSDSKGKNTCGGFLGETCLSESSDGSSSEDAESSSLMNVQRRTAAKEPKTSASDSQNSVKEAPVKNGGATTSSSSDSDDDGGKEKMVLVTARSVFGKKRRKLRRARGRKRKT

The target in data set [1] is coreTFIIH (7-subunit: XPB, XPD, p62, p52, p44, p34, p8);XPG (human;human, UniProt P19447;P18074;P32780;Q92759;Q13888;Q13889;Q6ZYL4;P28715 …, |).
Data set [2] deals with coreTFIIH (7-subunit: XPB, XPD, p62, p52, p44, p34, p8) (human, UniProt P19447;P18074;P32780;Q92759;Q13888;Q13889;Q6ZYL4 …).

B1: 3'Cy5 40ss/24ds (mixed)
DNA 1: TTTTTTTTTTTTTTTTTTTTTTTTTTTTTTTTTTTTTTTTGCTGTTGCCCGTCTCACTGGTGAA
DNA 2: TTCACCAGTGAGACGGGCAACAGC
One may read the Kd as the equilibrium constant for the complex coming apart. A high value points to lower affinity. B1: the Kd with XPG was around 134 nM; in data set [1], around 19 nM; in data set [2], around 82 nM.
